The record followed here is patent US20230363418A1, “COMPOSITION FOR PREVENTING OR TREATING NEUROPSYCHOLOGIC DISEASE, COMPRISING MANF” (CEFO CO., LTD., priority 2020, published 2023).

The assay concerns IBO-administered memory impairment and autism model. In words: Y-shaped maze experiment. The format is in vivo, rat. Particulars: MANF-AAV-hMSC transplanted into the hippocampus of IBO rats. On the procedure: Memory impairment and autism models were prepared by administering IBO to the entorhinal cortex of the rats, wherein the IBO destroys granule cells of the dentate gyrus (DG) and pyramidal cells of the hippocampus, which receive nerve signals input from the entorhinal cortex. Specifically, the rats were anesthetized with equitensin (10% ethanol containing 350 mM pentobarbital sodium, 250 mM chloral hydrate, 85 mM MgSO and 40% propylene glycol). The incisor bar of a stereotaxic device (Stoelting Co., U.S.A.) was placed 3.4 mm below the interaural line, and the injection needle angle was fixed at […] right from the center of the sagittal plane. 1.5 ul of IBO (1 mg/ml) was injected into the entorhinal cortex of the rat using the stereotaxic device. The IBO was injected into three locations of first, AP: -8.4, ML: -4.8, DV: -4.6; Second, AP; -8.4, ML: -4.8, DV: […]; Third, AP: -8.8, ML: - 3.65, DV: -3.4 (FIG. 7).
After 2-3 IBO injections, each group was randomly classified into an IBO-administrated group (negative control group), and a GFP-AAV-hMSC-administrated group (GFP-AAV) and a MANF-AAV-hMSC-administrated group […] as a control group. A rest period of one week was provided. […]

B1: MANF: one of 16 or more growth factors secreted into nerve stem cells by cerebrovascular cells; amino acid sequence of SEQ ID NO: 1 (protein)
chain: MRRMWATQGLAVALALSVLPGSRALRPGDCEVCISYLGRFYQDLKDRDVTFSPATIENELIKFCREARGKENRLCYYIGATDDAATKIINEVSKPLAHHIPVEKICEKLKKKDSQICELKYDKQIDLSTVDLKKLRVKELKKILDDWGETCKGCAEKSDYIRKINELMPKYAPKAASARTDL
modifications: MANF
Take B1: the “memory ability in Y-shaped maze test” value is “memory improvement”.
